Earlier results, collected in article PMC6503043.
Read-outs that look alike come from different tables or passages of the source.

Key:
CD28 (Homo sapiens) [1] = biological target: CD28 (Homo sapiens) (UniProt P10747)
CD28 (Homo sapiens) [2] = biological target: CD28 (Homo sapiens) (UniProt P10747); remark: listed apart in the source

Kd (CD28 (Homo sapiens) [1]) | Kd (CD28 (Homo sapiens) [2]) | Substance
5 µM | – | B7-1 (from UniProt P33681)
– | 20 µM | B7-2 (from UniProt P42081)
